Numbering of substitutions follows the chain as printed. In names and notes the source's numbering stands.
T1: IL-2hex, mutant human IL-2 (deltaA1/T3A/F42A/Y45A/L72G/C125S) (human, UniProt P60568 22-153)
T1 chain: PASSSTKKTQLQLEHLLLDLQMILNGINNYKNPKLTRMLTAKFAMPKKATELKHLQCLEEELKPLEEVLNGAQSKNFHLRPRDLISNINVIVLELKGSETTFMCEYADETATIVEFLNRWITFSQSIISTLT

B1: anti-IL-2/anti-FAP two-in-one antibody D029 (bispecific antibody, V domains shown)
VH: EVQLVESGGGLVQPGGSLRLSCAASGFTFTWSFMSWVRQAPGKGLEWVSWIGPSGSYTDYADSVKGRFTISRDNSKNTLYLQMNSLRAEDTAVYYCARSQYGRYYSPDYYFDYWGQGTLVTVSS
VL: DIQMTQSPSSLSASVGDRVTITCRASQDGGNYLNWYQQKPGKAPKLLIYGASTLYSGVPSRFSGSGSGTDFTLTISSLQPEDFATYYCQQGRTPPLTFGQGTKVEIKR
B2: D029HV4LV2 (bispecific antibody, V domains shown)
VH: B1 VH with T30S, W31R, S32F, S56L
VL: B1 VL with Q27G, D28A, G29L, N31F, G50A, T53S, Y55S, P94Y, L96F
notes: also called Rev1-Q27G/P94Y/L96F:H1V9
B3: D029 HV3LV2 (bispecific antibody, V domains shown)
VH: B1 VH with T30R, S32F, S56L
VL: B1 VL with Q27G, D28A, G29L, N31F, G50A, T53S, Y55S, P94Y, L96F
notes: also called D029L-Rev1:Q27G:P94Y:L96F/S55L:T30R:S32F
B4: Rev1-Q27G/P94Y/L96F:H1V11 (bispecific antibody, V domains shown)
VH: B1 VH with W31Y, S32F, S56L
VL: B1 VL with Q27G, D28A, G29L, N31F, G50A, T53S, Y55S, P94Y, L96F
notes: H1V11 = D029 VH with W31Y:S32F:S55L; also called H1V11 with D029LV2
B5: D029 HV2LV4 (bispecific antibody, V domains shown)
VH: B1 VH with S32F, S56L
VL: B1 VL with Q27G, D28A, G29L, N31F, G50A, T53S, Y55S, P94Y
notes: also called Rev1-Q27G:P94Y/S55L:S32F
B6: D029 HV3LV1 (bispecific antibody, V domains shown)
VH: B1 VH with T30R, S32F, S56L
VL: B1 VL with D28A, G29L, N31F, G50A, T53S, Y55S
notes: also called D029L-Rev1/S55L:T30R:S32F; Rev1/S55L:T30R:S32F
B7: Rev1-Q27G/P94Y/L96F:H1V10 (bispecific antibody, V domains shown)
VH: B1 VH with T30S, W31R, S56L
VL: B1 VL with Q27G, D28A, G29L, N31F, G50A, T53S, Y55S, P94Y, L96F
notes: H1V10 = D029 VH with T30S:W31R:S55L; also called H1V10 with D029LV2
B8: D029HV6LV2 (bispecific antibody, V domains shown)
VH: B1 VH with S32A, S56L
VL: B1 VL with Q27G, D28A, G29L, N31F, G50A, T53S, Y55S, P94Y, L96F
notes: also called Rev1-Q27G:P94Y:L96F/S55L:S32A
B9: D029 HV2LV1 (bispecific antibody, V domains shown)
VH: B1 VH with S32F, S56L
VL: B1 VL with D28A, G29L, N31F, G50A, T53S, Y55S
notes: also called Rev1/S55L:S32F
B10: D029 HV2LV2 (bispecific antibody, V domains shown)
VH: B1 VH with S32F, S56L
VL: B1 VL with Q27G, D28A, G29L, N31F, G50A, T53S, Y55S, P94Y, L96F
notes: also called Rev1-Q27G:P94Y:L96F/S55L:S32F
B11: 872-5 VH Q96L (antibody, V domains shown)
VH: EVQLVESGGGLVQPGGSLRLSCAASGFTFRGYIMSWVRQAPGKGLEWVSWISPEGSRTGYADSVKGRFTISRDNSKNTLYLQMNSLRAEDTAVYYCARLLYGTWFDYWGQGTLVTVSS
VL: DIQMTQSPSSLSASVGDRVTITCRASQSISSYLNWYQQKPGKAPKLLIYAASSLQSGVPSRFSGSGSGTDFTLTISSLQPEDFATYYCQQATLLLPTFGQGTKVEIKR
B12: 872-5 VH S52G:VL A91G/T92R (antibody, V domains shown)
VH: B11 VH with S52G, L100Q
VL: DIQMTQSPSSLSASVGDRVTITCRASQSISSYLNWYQQKPGKAPKLLIYAASSLQSGVPSRFSGSGSGTDFTLTISSLQPEDFATYYCQQGRLLLPTFGQGTKVEIK
notes: BLI per 6.1.3
B13: 872-5 VL T92R (antibody, V domains shown)
VH: B11 VH with L100Q
VL: B11 VL with T92R
notes: BLI per 6.1.3
B14: 872-5 VH S52G/Q96L:VL A91G/T92R (antibody, V domains shown)
VH: B11 VH with S52G
VL: B11 VL with A91G, T92R
notes: BLI per 6.1.3
B15: 872-5 VH S52G/Q96L/VL T92R (antibody, V domains shown)
VH: B11 VH with S52G
VL: B11 VL with T92R
notes: BLI per 6.1.3
B16: 872-5 VL A91G (antibody, V domains shown)
VH: B11 VH with L100Q
VL: B11 VL with A91G
notes: BLI per 6.1.3 (monovalent Fab-Fc)
B17: 872-5 VH S52G/Q96L (antibody, V domains shown)
VH: B11 VH with S52G
VL: B11 VL
notes: BLI per 6.1.3
B18: 872-5 VH S52G (antibody, V domains shown)
VH: B11 VH with S52G, L100Q
VL: B11 VL
notes: BLI per 6.1.3
B19: 872-5 VH Q96L:VL A91G/T92R (antibody, V domains shown)
VH: B11 VH
VL: B11 VL with A91G, T92R
notes: BLI per 6.1.3
B20: 872-5 VL A91G/T92R (antibody, V domains shown)
VH: B11 VH with L100Q
VL: B11 VL with A91G, T92R
notes: BLI per 6.1.3

Experiments:
[1] = biological target: human FAP expressed on cells (HEK 293T-hFAP-E5; ExpiCHO-hFAP) (human, UniProt Q12884 1-760); test: cell-based or functional assay
[2] = biological target: T1, IL-2hex, mutant human IL-2 …; test: cell-based or functional assay
[3] = biological target: T1, IL-2hex, mutant human IL-2 …; test: Affinity (nM), Table 13B
[4] = biological target: T1, IL-2hex, mutant human IL-2 …; test: BLI per 6.1.3; column head IL-2 KD
[5] = biological target: T2, human Fibroblast Activation Protein (FAP), soluble antigen (human, UniProt Q12884 26-760, biotinylated when immobilized on streptavidin sensors); test: Affinity (nM), Table 13B
T2 construct: also called hFAP; biotinylated FAP

[6] = biological target: T2, human Fibroblast Activation Protein …; test: BLI per 6.1.3
[7] = biological target: T2, human Fibroblast Activation Protein …; test: BLI per 6.1.3, human FAP;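 further: biolayer interferometry with immobilized antigen on sensors, antibody association up to 240 s then dissociation up to 420 s, reference-subtracted, global 1:1 fit with unlinked Rmax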

Binder | EC50 of HEK-Blue IL2 assay (pM) with HEK 293T-hFAP-E5; variant as masking moiety of a configuration 3 immunoconjugate [1] [pM] | EC50 of HEK-Blue IL2 assay (pM) with HEK 293T; variant as masking moiety of a configuration 3 immunoconjugate [2] [pM] | Kd [3] [nM] | Kd [4] [nM] | Kd [5] [nM] | Kd [6] [nM] | Kd [7] [nM] | koff [7] [s⁻¹] | kon [7] [M⁻¹ s⁻¹]
B1 | 56 | 1510 | 431 | 431 |  |  |  |  | 
B2 | 40 | 6100 | 4500 |  | 0.51 |  |  |  | 
B3 | 186 | 5330 | 100 | 331 | 100 | 3.58 |  |  | 
B4 | 57 | 9370 | 600 |  | 0.51 |  |  |  | 
B5 | 43 | 5140 | 1590 | 1590 | 1.5 | 1.53 |  |  | 
B6 | 35 | 7380 | 237 | 427 |  | 1.79 |  |  | 
B7 | 117 | 14800 | 700 |  | 10 |  |  |  | 
B8 | 145 | 4820 | 199 |  | 62 |  |  |  | 
B9 | 78 | 9260 | 1100 | 528 | 1.8 | 2.31 |  |  | 
B10 | 27 | 6060 | 419 | 419 | 2 | 1.98 |  |  | 
B11 |  |  |  |  |  |  | 1.5 | 0.000794 | 542000
B12 |  |  |  |  |  |  | 2.2 | 0.00148 | 673000
B13 |  |  |  |  |  |  | 1.6 | 0.001 | 614000
B14 |  |  |  |  |  |  | 0.241 | 0.000178 | 737000
B15 |  |  |  |  |  |  | 0.087 | 7.61e-05 | 878000
B16 |  |  |  |  |  |  | 0.78 | 0.00102 | 1.3e+06
B17 |  |  |  |  |  |  | 0.251 | 0.000161 | 645000
B18 |  |  |  |  |  |  | 2.2 | 0.00138 | 642000
B19 |  |  |  |  |  |  | 0.707 | 0.000571 | 812000
B20 |  |  |  |  |  |  | 0.398 | 0.000411 | 1.03e+06
